The target of one test is T1, recombinant human α11β1 (human, UniProt Q9UKX5 23-1141; P05556 21-728).
T1 construct: Coated in ELISA; ELISA and SPR material treated as one molecule; also called HIS-tagged human α11β1; integrin alpha 11 beta 1
As to the kind of experiment: ELISA on recombinant human α11β1. As for the experimental part: (§1) 0.25 μg/mL of target antigen (recombinant human or mouse α11β1) was plated in a 96-well plate over night at 4° C. Plates were washed (PBS with 0.1% Tween-20), blocked (PBS with 2% BSA and 0.05% Tween-20) for 1 hour at room temperature and incubated with a range of antibody concentrations for 1 hour at room temperature. Subsequently, plates were washed and incubated with biotinylated anti-rabbit/mouse/human IgG in a 1:1000 dilution buffer and incubated for 1 hour at room temperature. After washing the plates, Streptavidin HRP was added at 1:200 in dilution buffer and incubated for 1 hour at room temperature. Ultra TMB ELISA substrate solution was added and the plates incubated for 5 minutes on a plate shaker. The reaction was stopped by adding stop solution to each well and plates were read at 450 nm.
For orientation: An ELISA detects its analyte on a solid surface through an enzyme-linked reagent.

Test [1] concerns the target T2, in-house generated I domain of α11β1 (human, UniProt Q9UKX5 159-349, limits assumed).
T2 construct: domain: I domain; also called human α11β1 I domain; α11β1 I Domain
T2 sequence (looked up): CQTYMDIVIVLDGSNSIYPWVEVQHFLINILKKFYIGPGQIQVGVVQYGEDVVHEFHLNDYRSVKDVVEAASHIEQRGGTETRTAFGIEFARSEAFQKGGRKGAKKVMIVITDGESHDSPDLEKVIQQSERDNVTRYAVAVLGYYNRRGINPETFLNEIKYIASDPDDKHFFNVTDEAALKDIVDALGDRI
As to the kind of experiment: binding to isolated I domain.

Test [2] has as its target T3, α11β1 on human myofibroblasts (MF) (human, UniProt Q9UKX5 23-1188; P05556 21-798).
T3 construct: whole, on cells
As to the kind of experiment: FACS on human myofibroblasts. As for the experimental part:
Human Pulmonary Fibroblasts (ScienCell) were cultured in complete Fibroblast Growth Medium (ScienCell) until 80% confluent in T-150 flasks. Cells were washed and harvested using Accutase. Cells were seeded into T-150 flasks at 7,500 cells/cm² in complete FGF and cultured for 72 hours. Cells were then washed and starved in serum reduced medium for 24 hours. After starvation, cells were treated with TGFβ-1 (R&D Systems) for 72 hours. Cells were harvested using Accutase and seeded in 96-well conical bottom plates. Cells were blocked with Heat Inactived Fetal Bovine Serum (Gibco) for 30 minutes at 4° C. Cells were then incubated with anti-α11 antibodies at the doses described in each figure for 30 minutes at 4° C. A human anti-α11 antibody (Creative BioLabs) was included as a positive control as well as the appropriate IgG isotype negative controls. Cells were washed twice and incubated with PE conjugated secondary antibodies specific to the IgG class of the anti-α11 antibodies being tested for 30 minutes at 4° C. Cells were washed twice and fixed in 1% PFA for 30 minutes. Cells were acquired on a FACS Verse […]. Data were analyzed by gating on single cells and determining the geometric Mean Fluorescence Intensity (gMFI) in the PE channel for each sample.

A further test addresses T4, recombinant mouse α11β1 (mouse, UniProt P61622 23-1141; P09055 21-728, limits assumed).
T4 construct: also called murine α11β1
As to the kind of experiment: ELISA on recombinant mouse α11β1. On the procedure:
as §1

T4 sequence (P61622 23-1141 limits assumed, chain 1 of 2): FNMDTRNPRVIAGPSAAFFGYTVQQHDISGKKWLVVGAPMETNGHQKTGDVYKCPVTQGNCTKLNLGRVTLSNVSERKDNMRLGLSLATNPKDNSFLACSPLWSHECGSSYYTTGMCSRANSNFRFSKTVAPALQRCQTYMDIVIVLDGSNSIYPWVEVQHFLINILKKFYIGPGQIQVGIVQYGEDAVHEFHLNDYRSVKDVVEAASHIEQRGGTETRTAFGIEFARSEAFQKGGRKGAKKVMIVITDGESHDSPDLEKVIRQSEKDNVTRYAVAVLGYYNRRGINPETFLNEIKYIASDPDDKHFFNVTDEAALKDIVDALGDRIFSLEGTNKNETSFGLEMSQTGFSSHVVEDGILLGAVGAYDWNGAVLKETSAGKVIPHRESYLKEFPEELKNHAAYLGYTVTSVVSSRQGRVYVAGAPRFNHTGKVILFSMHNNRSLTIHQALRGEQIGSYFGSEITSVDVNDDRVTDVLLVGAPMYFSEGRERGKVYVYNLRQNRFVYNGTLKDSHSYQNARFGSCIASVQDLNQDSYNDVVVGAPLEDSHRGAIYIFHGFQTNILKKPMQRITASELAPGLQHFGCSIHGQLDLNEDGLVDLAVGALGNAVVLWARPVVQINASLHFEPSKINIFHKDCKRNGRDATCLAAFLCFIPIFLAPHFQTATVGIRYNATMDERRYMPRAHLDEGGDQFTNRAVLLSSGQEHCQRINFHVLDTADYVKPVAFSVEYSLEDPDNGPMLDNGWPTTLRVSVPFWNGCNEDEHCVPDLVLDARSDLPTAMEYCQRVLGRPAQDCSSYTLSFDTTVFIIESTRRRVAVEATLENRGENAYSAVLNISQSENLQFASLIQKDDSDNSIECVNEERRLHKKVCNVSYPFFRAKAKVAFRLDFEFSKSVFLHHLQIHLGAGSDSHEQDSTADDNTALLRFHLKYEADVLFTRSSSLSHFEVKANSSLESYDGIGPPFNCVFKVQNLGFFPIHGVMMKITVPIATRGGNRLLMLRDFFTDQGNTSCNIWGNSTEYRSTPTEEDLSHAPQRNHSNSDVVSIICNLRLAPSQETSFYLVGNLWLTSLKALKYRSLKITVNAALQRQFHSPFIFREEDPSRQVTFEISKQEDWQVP
T4 sequence (P09055 21-728 limits assumed, chain 2 of 2): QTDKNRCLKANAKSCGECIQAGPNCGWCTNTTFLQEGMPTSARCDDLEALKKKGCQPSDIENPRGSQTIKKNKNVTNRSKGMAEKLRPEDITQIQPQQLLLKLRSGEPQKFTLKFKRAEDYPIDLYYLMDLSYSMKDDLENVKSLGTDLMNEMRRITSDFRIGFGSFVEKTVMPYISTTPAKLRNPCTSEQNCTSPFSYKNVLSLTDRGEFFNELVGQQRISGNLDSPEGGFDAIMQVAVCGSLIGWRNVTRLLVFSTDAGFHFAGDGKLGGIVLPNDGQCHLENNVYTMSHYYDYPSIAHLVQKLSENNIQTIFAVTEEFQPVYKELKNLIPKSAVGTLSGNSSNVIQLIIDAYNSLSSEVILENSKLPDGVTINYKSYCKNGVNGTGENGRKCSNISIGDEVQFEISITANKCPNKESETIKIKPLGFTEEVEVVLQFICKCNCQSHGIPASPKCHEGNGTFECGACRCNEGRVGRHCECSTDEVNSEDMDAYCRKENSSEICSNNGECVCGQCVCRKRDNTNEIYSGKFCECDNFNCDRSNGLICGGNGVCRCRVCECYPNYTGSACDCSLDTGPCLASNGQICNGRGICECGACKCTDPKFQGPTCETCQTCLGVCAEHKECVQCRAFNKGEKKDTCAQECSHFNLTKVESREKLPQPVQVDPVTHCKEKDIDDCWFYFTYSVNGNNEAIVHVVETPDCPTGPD
T1 sequence (Q9UKX5 23-1141 limits assumed, chain 1 of 2): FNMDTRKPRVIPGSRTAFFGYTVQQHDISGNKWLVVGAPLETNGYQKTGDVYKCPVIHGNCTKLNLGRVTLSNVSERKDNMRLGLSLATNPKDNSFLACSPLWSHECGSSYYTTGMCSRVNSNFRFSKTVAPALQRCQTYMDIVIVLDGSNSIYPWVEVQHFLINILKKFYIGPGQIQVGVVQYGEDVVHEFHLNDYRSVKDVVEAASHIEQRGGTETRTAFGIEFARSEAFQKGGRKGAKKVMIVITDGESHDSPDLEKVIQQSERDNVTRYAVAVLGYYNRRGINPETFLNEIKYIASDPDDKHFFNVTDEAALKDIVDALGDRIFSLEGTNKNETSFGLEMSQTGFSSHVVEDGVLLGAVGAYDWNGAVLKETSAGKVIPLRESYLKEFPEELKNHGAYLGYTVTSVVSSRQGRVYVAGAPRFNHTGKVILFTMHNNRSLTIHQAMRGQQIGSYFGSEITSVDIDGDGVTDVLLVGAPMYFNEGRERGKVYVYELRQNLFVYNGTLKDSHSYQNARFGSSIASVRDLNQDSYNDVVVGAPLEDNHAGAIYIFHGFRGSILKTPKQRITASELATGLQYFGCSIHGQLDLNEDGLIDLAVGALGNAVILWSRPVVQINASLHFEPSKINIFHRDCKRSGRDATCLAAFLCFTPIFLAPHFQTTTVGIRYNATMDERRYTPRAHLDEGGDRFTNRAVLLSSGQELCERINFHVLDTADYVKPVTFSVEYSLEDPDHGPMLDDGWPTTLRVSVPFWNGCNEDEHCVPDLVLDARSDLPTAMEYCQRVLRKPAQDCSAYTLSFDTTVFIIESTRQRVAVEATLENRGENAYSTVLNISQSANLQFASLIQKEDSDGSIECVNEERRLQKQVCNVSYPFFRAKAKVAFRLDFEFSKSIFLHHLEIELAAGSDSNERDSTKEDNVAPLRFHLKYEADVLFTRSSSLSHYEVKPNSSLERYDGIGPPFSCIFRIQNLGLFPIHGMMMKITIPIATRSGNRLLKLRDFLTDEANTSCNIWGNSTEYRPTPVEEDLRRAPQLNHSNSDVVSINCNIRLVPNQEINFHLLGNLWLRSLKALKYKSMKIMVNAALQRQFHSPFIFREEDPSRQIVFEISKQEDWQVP
T1 sequence (P05556 21-728 limits assumed, chain 2 of 2): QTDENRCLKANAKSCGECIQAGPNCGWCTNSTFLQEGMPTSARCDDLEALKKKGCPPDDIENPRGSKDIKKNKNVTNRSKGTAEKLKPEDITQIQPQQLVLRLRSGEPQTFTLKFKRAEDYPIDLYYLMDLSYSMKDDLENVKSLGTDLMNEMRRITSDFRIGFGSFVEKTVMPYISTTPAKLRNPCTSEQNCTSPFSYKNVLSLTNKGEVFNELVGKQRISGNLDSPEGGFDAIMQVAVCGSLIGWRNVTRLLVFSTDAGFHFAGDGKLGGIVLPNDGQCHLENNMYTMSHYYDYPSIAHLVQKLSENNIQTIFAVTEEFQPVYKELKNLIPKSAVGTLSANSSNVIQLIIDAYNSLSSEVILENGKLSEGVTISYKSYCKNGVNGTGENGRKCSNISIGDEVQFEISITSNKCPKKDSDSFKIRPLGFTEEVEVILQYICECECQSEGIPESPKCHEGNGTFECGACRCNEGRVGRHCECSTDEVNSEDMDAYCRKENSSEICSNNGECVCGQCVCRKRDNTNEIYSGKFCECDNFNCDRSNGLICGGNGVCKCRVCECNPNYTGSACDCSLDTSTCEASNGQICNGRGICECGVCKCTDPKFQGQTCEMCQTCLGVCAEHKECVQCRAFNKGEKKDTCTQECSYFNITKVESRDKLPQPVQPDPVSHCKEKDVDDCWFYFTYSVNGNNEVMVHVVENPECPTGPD

B1: A11B1_6F9 (antibody, V domains shown)
VH: QSLEESGGDLVKPGASLTLTCTASGSSFSSTYWNCWVRQAPGKGLEWIACINAGSGTTYYASWAKGRFTVSKTSSTTVTLQMTSLTAADTATYFCTRDSDGRFSSGYYFNLWGPGTLVTVSS
VL: AQVLTQTASPVSAAVGGTVTINCQSSQSVYDNNWLAWYQQKPGQPPKLLIDDASKLTSGVSSRFKGSGSGTQFTLTISGVQCDDAATYYCQGAYYSSGWYWAFGGGTEVVVKG
notes: recombinant rabbit IgG, full chains
As to B1, the binding result was “binds” with recombinant human α11β1, “no binding” in test [1], “binds” in test [2] and “no binding” with recombinant mouse α11β1.

B2: A11B1_5D7 (antibody, V domains shown)
VH: QEQLVESGGGLVQPEGSLTLTCKASGFDFSSNAMCWVRQAPGKGLEWIACIYNGDGSTYYASWVNGRFTISKTSSTTVTLQMTSLTAADTATYFCARGLSNWNRDNLWGPGTLVTVSS
VL: AQVLTQTPSSVSAAVGGTATINCQASQSLYSPKNLAWYQQTPGQPPKLLIYSASKLASGVPSRFKGSGSGTQFTLTISGVQCDDAAIYYCQGEFSCTTAACFAFGGGTEVVVKG
notes: as for B1
As for B2, the binding result with recombinant human α11β1 is “binds”; in test [1] it was “no binding”; in test [2], “binds”; with recombinant mouse α11β1, “no binding”.

B3: 6-O17 (antibody, V domains shown)
VH: QVQLQQPGAELVKPGASVKLSCKASGYTFTSYWMHWIKQRPGQGLEWIGEINPSNGGSNYNEKFKSKATLTVDKSSSTAYMQLSSLTSEDSAVYHCKSRGYWGQGTTLTVSS
VL: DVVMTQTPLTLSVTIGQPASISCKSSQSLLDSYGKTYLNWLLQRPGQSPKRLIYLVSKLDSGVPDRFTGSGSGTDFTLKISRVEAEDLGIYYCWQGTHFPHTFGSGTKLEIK
notes: mouse hybridoma IgG
With B3, the binding result with recombinant human α11β1 was “binds”; in test [1], “no binding”; in test [2] it was “binds”; in the test with recombinant mouse α11β1, “binds”.

B4: A11B1_6G4 (antibody, V domains shown)
VH: QQQLEESGGGLVKPGGTLTLTCKASGVALNPYYYMCWVRQAPGKGLEWIACVDADSSGSTYYASWAKGRFTISKTSSTTVTLKMTSLTAADTATYFCARESVDYSSVGIGYVHGTDGLWGPGTLVTVSS
VL: DIVVTQTPSSVSAAVGGTVTIKCQASQSISNYFSWYQQKPGQPPKLLIYRASTLASGVPSRFKGSGSGTEFTLTISDLECADAATYYCQCTYGRSNSNFFYGFGGGTEVVVKG
notes: as for B1
Consider B4, for which the binding result with recombinant human α11β1 is reported as “binds”; in test [1], “no binding”; in test [2], “binds”; with recombinant mouse α11β1 it was “no binding”.

B5: A11B1_5A7 (antibody, V domains shown)
VH: QSLEESGGGLVQPEGSLTLACTASGFSFSSYYYICWVRQAPGTGLEWIGCINTGSDDTHYASWLKGRFTFSKASSTTLTLQMTSLTAADTATYFCARSSGSSDDAYDLWGPGTLVTVSS
VL: DVVMTQTPASVSEPVGGAVTIKCQASQSIGSNLAWYQHKPGQPPKLLIYFASSLASGVSSRFKGGRSGTQFTLTISDLECADAATYYCHCTYYPLSYVTFGGGTEVVVKG
notes: as for B1
For the molecule B5, the binding result with recombinant human α11β1 is on record as “binds”; in test [1], “no binding”; in test [2], “binds”; with recombinant mouse α11β1, “no binding”.

B6: 7D8B10 (antibody, V domains shown)
VH: EVKLEESGGGLVQPGMSVKLSCATSGFIFSDYWMEWVRQAPGKGLEWVAEIRNKANNYATYYGKSMKGRFTISRDDSKSIVYLQVNSIRSEDTAIYYCAPNFDYWGQGVMVTVSS
VL: DVVLTQTPPTLSATIGQSVSISCRSSQSLLHSTGNTYLNWLLQRPGQPPQLLIYLVSRLESGVPNRFSASGSGTDFTLKISGIEAEDLGVYYCVQSSHTPYTFGTGTKLELK
notes: rat hybridoma mAb
Consider B6, for which the binding result is recorded as “binds” with recombinant human α11β1, “no binding” in test [1], “binds” in test [2] and “no binding” in the test with recombinant mouse α11β1.

B7: A11B1_6C7 (antibody, V domains shown)
VH: QQQLEESGGGLVKPGGTLTLTCKASGIDFSSYYYMCWVRQAPGKGLELIVCIYTSSGGTWYASWVNGRLTISRSTSLNTVDLKMTSLTAADTATYFCARGVYSGSSDYPTRLDLWGQGTLVTVSL
VL: AIEMTQSPPSLSASVGETVRIRCLASEDIYSGISWYQQKPEKPPTLLISGASNLESGVPPRFSGGGSGTDYTLTIGGVQAEDVATYYCLGGYSFSSTGLTFGAGTKVEIKR
notes: as for B1
With B7, the binding result is “binds” with recombinant human α11β1, “no binding” in test [1], “binds” in test [2] and “no binding” in the test with recombinant mouse α11β1.

B8: A11B1_4E1 (antibody, V domains shown)
VH: QSLEESGGDLVKPGTSLTLSCTASGFSFGSYYYMCWVRQAPGKGLEWIACIDVGSSGDTYYASWVNGRFTISKTSSTTVTLQMTSLTAADTATYFCARDDTAAGGFGNLELWGPGTLVTVSS
VL: AFELTQTPSSVSEPVGGTVTIKCQASQSIYSYFSWYQQKPGQPPKRLIYQASTLASGVPSRFKGSGSGTDFTLTISDLECADAATYYCQNNYGRGSGSYFFGFGGGTEVVVKG
notes: as for B1
For the molecule B8, the binding result is “binds” with recombinant human α11β1, “no binding” in test [1], “binds” in test [2] and “no binding” with recombinant mouse α11β1.

B9: A11B1_3B1 (antibody, V domains shown)
VH: QEQLEESGGGLVKPEGSLTLTCKASGFDLSSGYDMCWVRQAPGKGLEWIACIYADYSGSTYYASWVNGRFTISSSTSLNTVDLKMTSLTAADTATYFCARGATGNGGYGYYFNLWGPGTLVTVSS
VL: DIVMTQTPASVSEPVGGTVTIKCQASQNINSGLAWYQQKPGQPPKLLIYKASTLASGVSSRFKGSGSGTEFTLTISDLECADAATYYCQTYYYSSSSSDNAFGGGTEVVVKG
notes: as for B1
Regarding B9, the binding result with recombinant human α11β1 is recorded as “binds”; in test [1] it was “no binding”; in test [2], “binds”; in the test with recombinant mouse α11β1 it was “no binding”.

B10: A11B1_16G7 (antibody, V domains shown)
VH: QEQLVESGGDLVKPGASLTLTCTASGFSFNKNYWMCWVRQAPGKGLEWIGCIYNGDGNTYYASWVNGRFTISKTSSTTVTLQMTSLTVADTAIYFCARLLNMWGPGTLVTVSS
VL: DIVMTQTPASVEAAVGGTVTIKCQASESIGNALAWYQQKPGQPPKLLIYTAATLASGVPSRFSGSGSGTEFTLTISGVQCDDAATYYCQSYYFTSVSSYGNAFGGGTEVVVKG
notes: as for B1
For the molecule B10, the binding result in the test with recombinant human α11β1 is “binds”; in test [1], “no binding”; in test [2], “binds”; in the test with recombinant mouse α11β1, “binds”.

B11: 7-H14 (antibody, V domains shown)
VH: QVQLQQPGAELVRPGASVKLSCKPSGYTFTSYWMNWVKQRPGQGLEWIGMIDPSDSETHYNQMFKDKATLTVDKSSNTAYMQLSSLTSEDSAVYYCAQIYYAYDKAYWGQGTLVTVSA
VL: DIVMSQSPSSLAVSVGEKVTMSCKSSQSLLYSSHQKNYLAWYQQKPGQSPKLLIYWASTRESGVPDRFTGSGSGTDFSLTISSVKAEDLAVYYCQEYYSWTFGGGTKLEIK
notes: mouse hybridoma IgG
As for B11, the binding result is listed as “binds” with recombinant human α11β1, “no binding” in test [1], “binds” in test [2] and “binds” with recombinant mouse α11β1.
